Assay results: US20240010750A1 (Bayer, published 2024)
Like-named read-outs stand apart in the source and are kept apart here.

B1: TPP-14318 hIgG1 (antibody, V domains shown)
VH: EVQLLESGGGLVQPGGSLRLSCAASGFTFDDYAMSWVRQAPGKGLEWVSAIGTGGGTYYADSVKGRFTISRDNSKNTLYLQMNSLRAEDTAVYYCAREYYDSSGYYHLEYWGQGTLVTVSS
VL: QSVLTQPPSASGTPGQRVTISCTGSSSNIGATYDVHWYQQLPGTAPKLLIYSNNQRPSGVPDRFSGSKSGTSASLAISGLRSEDEADYYCAAWDWSLSGWVFGGGTKLTVLG
B2: TPP-14323 hIgG1 (antibody, V domains shown)
VH: EVQLLESGGGLVQPGGSLRLSCAASGFTFDDYAMSWVRQAPGKGLEWVSAIGTGGGTYYADSVKGRFTISRDNSKNTLYLQMNSLRAEDTAVYYCAREYYDSSGYYHLTYWGQGTLVTVSS
VL: QSVLTQPPSASGTPGQRVTISCTGSSSNIGATYDVHWYQQLPGTAPKLLIYSNNQRPSGVPDRFSGSKSGTSASLAISGLRSEDEADYYCAAWDWSLSGWVFGGGTKLTVLG
B3: TPP-17045 hIgG1 (antibody, V domains shown)
VH: EVQLLESGGGLVQPGGSLRLSCAASGFTFDDYAMSWVRQAPGKGLEWVSAIGTGGGTYYADSVKGRFTISRDNSKNTLYLQMNSLRAEDTAVYYCAKEGYDSSGYYHLDYWGQGTLVTVSS
VL: QSVLTQPPSASGTPGQRVTISCTGSSSNIGATYDVHWYQQLPGTAPKLLIYSNNQRPSGVPDRFSGSKSGTSASLAISGLRSEDEADYYCAAWDWSLSGWVFGGGTKLTVLG
notes: Germline variant of TPP-14308
B4: TPP-14313 hIgG1 (antibody, V domains shown)
VH: EVQLLESGGGLVQPGGSLRLSCAASGFTFDDYAMSWVRQAPGKGLEWVSAIGTGGGTYYADSVKGRFTISRDNSKNTLYLQMNSLRAEDTAVYYCAREYYDSSGYYHLVYWGQGTLVTVSS
VL: QSVLTQPPSASGTPGQRVTISCTGSSSNIGATYDVHWYQQLPGTAPKLLIYSNNQRPSGVPDRFSGSKSGTSASLAISGLRSEDEADYYCAAWDWSLSGWVFGGGTKLTVL
notes: Human IgG1 lambda

Columns and labels:
human alpha2-Antiplasmin [1] = biological target: T1, human alpha2-Antiplasmin (human, UniProt P08697 40-491); assay: ELISA, coated antigen, 3rd exp.
T1 construct: Bought (antibodies online, ABIN2544306); also called human A2AP; a2AP
T1 sequence: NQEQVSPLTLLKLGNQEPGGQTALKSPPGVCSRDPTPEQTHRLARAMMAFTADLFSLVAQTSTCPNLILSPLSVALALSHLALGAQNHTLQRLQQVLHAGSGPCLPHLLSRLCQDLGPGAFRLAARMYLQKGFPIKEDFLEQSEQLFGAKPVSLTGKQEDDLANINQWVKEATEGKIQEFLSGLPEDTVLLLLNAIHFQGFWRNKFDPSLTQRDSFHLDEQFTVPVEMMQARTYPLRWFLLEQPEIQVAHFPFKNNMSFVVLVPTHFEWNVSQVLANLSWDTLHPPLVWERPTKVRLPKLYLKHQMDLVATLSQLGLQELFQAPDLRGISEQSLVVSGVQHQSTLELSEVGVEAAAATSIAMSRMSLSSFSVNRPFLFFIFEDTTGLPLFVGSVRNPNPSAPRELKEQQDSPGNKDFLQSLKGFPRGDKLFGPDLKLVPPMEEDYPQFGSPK
Experimental: (§1) A standard ELISA format was used for analyzing the binding affinity of Fabs of this invention to human and rabbit alpha-2-Antiplasmin, respectively. Antigens were coated to black 384 well Maxisorp microtiter plates (Nunc; catalogue number 460518), diluted to a concentration of 1 μg/ml in 1× Coating Buffer (Candor Bioscience; catalogue number 121125). Plates were incubated overnight at 4° C. After overnight incubation, plates were washed 2× with 50 μl/well using PBS+0.05% Tween 20. Following this, 50 μl/well of blocking buffer (Smart Block; Candor Bioscience; catalogue number 113500) was added and the plates were incubated for 1 hour at room temperature. Afterwards, plates were washed for 3× using […] PBS+0.05% Tween 20 buffer. Fabs of this invention were added at different concentrations in a final volume of 30 μl/well. Plates were incubated for 1 hour at room temperature. Following this incubation step, plates were washed for 3× using 50 μl/well of a PBS+0.05% Tween 20 buffer. For the detection of bound Fabs and full-length antibodies, the anti-Human Lambda Light Chains (Bound and Free)—Peroxidase antibody (Sigma; catalogue number A5175) was diluted by the factor of 1:10.000 in 10% Blocking Buffer. 30 μl/well of this diluted detection antibody was added and plates are incubated for 1 hour at room temperature. Following this incubation step, plates were washed for 3× using 50 μl/well of a PBS+0.05% Tween 20 buffer. As substrate, a mixture of 30 μl/well of 1:1000 diluted Amplex red (Invitrogen; catalogue number 12222; stock solution 10 mM in DMSO) and 1:10.000 of Hydrogen peroxide (Merck; catalogue number 107209; 30% stock solution) was added and the plates incubated for minutes in the dark.
(§2) For measurement, the Infinite f500 reader (Tecan) was used. Measurement mode: Fluorescence; Top reading; Ex 535 nm; Em 590 nm.
(§3) According to the methods described in Example 3 and Example 4, antibodies TPP-14323, TPP-14318, TPP-14314, TPP-14313, TPP-14308, TPP-14305, TPP-14303, TPP-14298, and TPP-14293 were tested for their ability to bind to and to block the activity of human alpha2-Antiplasmin in a dose-dependent manner. For each antibody, one dose response curve from two to three independent experiments performed in quadruplicate is shown as example in FIG. 7.1 to FIG. 7.18. (see Table 3.3)

human alpha2-Antiplasmin [2] = biological target: T1, human alpha2-Antiplasmin; assay: ELISA, coated antigen, 2nd exp.
Experimental: as §1, §2, §3

human Plasmin = human Plasmin (human, UniProt P00747 97-580; P00747 581-810, limits assumed); assay: cell-based or functional assay
Sequence of human Plasmin (P00747 97-580 limits assumed, chain 1 of 2): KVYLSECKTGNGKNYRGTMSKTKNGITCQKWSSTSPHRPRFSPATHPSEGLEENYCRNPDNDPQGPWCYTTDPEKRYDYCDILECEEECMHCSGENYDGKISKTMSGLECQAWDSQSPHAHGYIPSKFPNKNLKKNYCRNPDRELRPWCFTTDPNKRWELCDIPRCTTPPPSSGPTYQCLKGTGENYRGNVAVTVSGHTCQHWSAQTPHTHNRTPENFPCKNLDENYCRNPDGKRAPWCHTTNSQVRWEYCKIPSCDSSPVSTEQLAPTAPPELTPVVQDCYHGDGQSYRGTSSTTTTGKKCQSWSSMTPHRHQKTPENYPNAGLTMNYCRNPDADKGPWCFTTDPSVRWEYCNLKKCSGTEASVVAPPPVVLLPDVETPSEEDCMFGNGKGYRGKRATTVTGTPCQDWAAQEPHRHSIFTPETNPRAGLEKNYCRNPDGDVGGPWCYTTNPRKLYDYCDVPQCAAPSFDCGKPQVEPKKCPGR
Sequence of human Plasmin (P00747 581-810 limits assumed, chain 2 of 2): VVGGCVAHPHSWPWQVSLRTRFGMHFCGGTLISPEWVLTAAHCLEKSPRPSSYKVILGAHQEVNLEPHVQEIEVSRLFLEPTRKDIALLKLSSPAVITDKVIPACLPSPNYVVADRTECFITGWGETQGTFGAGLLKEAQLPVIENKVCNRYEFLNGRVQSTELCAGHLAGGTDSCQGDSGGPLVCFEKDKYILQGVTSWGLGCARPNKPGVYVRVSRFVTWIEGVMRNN

human alpha2-Antiplasmin [3] = biological target: T1, human alpha2-Antiplasmin; assay: cell-based or functional assay
human alpha2-Antiplasmin [4] = biological target: T1, human alpha2-Antiplasmin; assay: cell-based or functional assay; remark: listed apart in the source
human alpha2-Antiplasmin [5] = biological target: T1, human alpha2-Antiplasmin; assay: ELISA, coated antigen, 1st exp.
Experimental: as §1, §2, §3

human alpha2-Antiplasmin [6] = biological target: T1, human alpha2-Antiplasmin; assay: cell-based or functional assay; remark: listed apart in the source
human alpha2-Antiplasmin [7] = biological target: T1, human alpha2-Antiplasmin; assay: ELISA, coated antigen, quantified unpurified antibody, 1st exp.
human alpha2-Antiplasmin [8] = biological target: T1, human alpha2-Antiplasmin; assay: ELISA, coated antigen, quantified unpurified antibody, 2nd exp.
human alpha2-Antiplasmin [9] = biological target: T1, human alpha2-Antiplasmin; assay: cell-based or functional assay; remark: listed apart in the source
human alpha2-Antiplasmin [10] = biological target: T1, human alpha2-Antiplasmin; assay: ELISA, coated antigen, quantified unpurified antibody, 3rd exp.
Experimental: as §1, §2

human alpha2-Antiplasmin [11] = biological target: T1, human alpha2-Antiplasmin; assay: ELISA (Example 3), human alpha2-Antiplasmin coated, RFU
Experimental: as §1, with “30 μl/well of this diluted detection antibody was added and plates are incubated for 1 hour at room temperature. Following this incubation step, plates were washed for 3× using 50 μl/well of a PBS+0.05% Tween 20 buffer. As substrate, a mixture of 30 μl/well of 1:1000 diluted Amplex red (Invitrogen; catalogue number 12222; stock solution 10 mM in DMSO) and 1:10.000 of Hydrogen peroxide (Merck; catalogue number 107209; 30% stock solution) was added and the plates incubated for minutes in the dark.” left out
as §2

human alpha2-Antiplasmin [12] = biological target: T1, human alpha2-Antiplasmin; assay: cell-based or functional assay; remark: listed apart in the source
[13] = biological target: T2, rabbit alpha2-Antiplasmin (rabbit (Oryctolagus cuniculus)); assay: SPR Biacore T200, antibody captured on protein G chip, A2AP as analyte, 25 C
T2 construct: Made in house in HEK293 cells, purified by Ni-IMAC and SEC (a His tag is implied but not described); also called rabbit A2AP; Oryctolagus cuniculus A2AP
T2 chain: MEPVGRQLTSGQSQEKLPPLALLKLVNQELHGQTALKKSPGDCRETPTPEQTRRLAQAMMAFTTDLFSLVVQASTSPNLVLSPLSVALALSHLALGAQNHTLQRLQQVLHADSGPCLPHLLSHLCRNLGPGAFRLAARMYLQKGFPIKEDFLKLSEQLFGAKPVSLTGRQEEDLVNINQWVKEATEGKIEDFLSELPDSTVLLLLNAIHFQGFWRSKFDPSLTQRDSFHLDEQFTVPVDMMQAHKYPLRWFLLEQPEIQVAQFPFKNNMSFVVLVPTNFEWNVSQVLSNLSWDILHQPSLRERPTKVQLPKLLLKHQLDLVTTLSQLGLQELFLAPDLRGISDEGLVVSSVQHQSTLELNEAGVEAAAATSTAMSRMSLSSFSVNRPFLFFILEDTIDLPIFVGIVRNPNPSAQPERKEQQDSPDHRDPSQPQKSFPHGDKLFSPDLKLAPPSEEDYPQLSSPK
Experimental: (§4) Binding assays were performed on a Biacore T200 instrument at 25° C. with a protein G sensor chip and assay buffer HBS-EP+. Antibodies were captured to ˜150 RU and analytes were used at concentrations between 1.56 and 200 nM for full kinetics. As interaction partner, alpha2-Antiplasmin from human, cynomolgus and rabbit was used. Regeneration was performed with glycine-HCl pH 1.5. Kinetic parameters were derived by fitting experimental sensorgrams to a 1:1 Langmuir binding model.

[14] = biological target: T3, cynomolgus alpha2-Antiplasmin (cynomolgus (Macaca fascicularis), UniProt P08697 28-491 (human entry)); assay: as above
T3 construct: Made in house in the same way as the rabbit protein; also called cynomolgus A2AP; Macaca fascicularis A2AP
T3 chain: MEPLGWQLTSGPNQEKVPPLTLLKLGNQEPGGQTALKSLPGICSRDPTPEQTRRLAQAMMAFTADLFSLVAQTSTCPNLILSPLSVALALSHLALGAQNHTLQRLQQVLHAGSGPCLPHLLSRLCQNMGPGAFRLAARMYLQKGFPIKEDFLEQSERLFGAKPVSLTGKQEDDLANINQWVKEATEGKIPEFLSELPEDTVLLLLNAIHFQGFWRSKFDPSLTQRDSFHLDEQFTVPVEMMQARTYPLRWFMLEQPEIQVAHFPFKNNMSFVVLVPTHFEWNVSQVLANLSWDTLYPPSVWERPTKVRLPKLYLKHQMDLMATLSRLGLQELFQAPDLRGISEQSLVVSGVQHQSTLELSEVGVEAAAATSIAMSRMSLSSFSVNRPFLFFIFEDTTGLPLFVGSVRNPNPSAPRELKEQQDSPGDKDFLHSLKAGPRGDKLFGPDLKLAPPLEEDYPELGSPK
Experimental: as §4

human alpha2-Antiplasmin [15] = biological target: T1, human alpha2-Antiplasmin; assay: as above
Experimental: as §4

human alpha2-Antiplasmin [16] = biological target: T1, human alpha2-Antiplasmin; assay: cell-based or functional assay; remark: listed apart in the source
human alpha2-Antiplasmin [17] = biological target: T1, human alpha2-Antiplasmin; assay: cell-based or functional assay; remark: listed apart in the source
human alpha2-Antiplasmin [18] = biological target: T1, human alpha2-Antiplasmin; assay: ELISA (Example 3), human alpha2-Antiplasmin coated, RFU; remark: listed apart in the source
Experimental: as §1, with “As substrate, a mixture of 30 μl/well of 1:1000 diluted Amplex red (Invitrogen; catalogue number 12222; stock solution 10 mM in DMSO) and 1:10.000 of Hydrogen peroxide (Merck; catalogue number 107209; 30% stock solution) was added and the plates incubated for minutes in the dark.” left out
as §2
According to the method described in Example 3, these 12 antibodies were tested for ability to bind human and rabbit alpha2-Antiplasmin in a dose-dependent manner. Data generated were analyzed using the GraphPadPrism software. The binding activities of the antibodies were calculated as EC50 values. […]

| Binder | EC50 (human alpha2-Antiplasmin [1]) | EC50 (human alpha2-Antiplasmin [2]) | IC50 [M], inhibition of plasmin proteolytic activity (human Plasmin) | function blocking activity [IC50 M], 1st exp. (human alpha2-Antiplasmin [3]) | function blocking activity [IC50 M], 2nd exp. (human alpha2-Antiplasmin [3]) | function blocking activity [IC50 M], 3rd exp. (human alpha2-Antiplasmin [3]) | EC50 (human alpha2-Antiplasmin [5]) | also measured |
| --- | --- | --- | --- | --- | --- | --- | --- | --- |
| B1 | 61 nM | 59 nM | > 1e-05 M | 20 nM | 25 nM | 22 nM | 5.7 nM | EC50 (read off the curve); function blocking assay (Example 4), RFU of plasmin substrate cleavage (human alpha2-Antiplasmin [4]): ~20 nM |
| B2 | 71 nM | 73 nM | > 1e-05 M | 20 nM | 20 nM | 29 nM | 7 nM | EC50 (read off the curve); function blocking assay (Example 4), RFU of plasmin substrate cleavage (human alpha2-Antiplasmin [6]): ~20 nM |
| B3 |  |  | > 1e-05 M |  |  |  |  | EC50 (human alpha2-Antiplasmin [7]): 0.085 nM; EC50 (human alpha2-Antiplasmin [8]): 0.12 nM; IC50, A2AP function blocking assay (Example 10) (human alpha2-Antiplasmin [9]): 0.14 nM; EC50 (human alpha2-Antiplasmin [10]): 0.11 nM; EC50 (read off the curve) (human alpha2-Antiplasmin [11]): ~0.08 nM; EC50 (read off the curve); function blocking assay (Example 4), RFU of plasmin substrate cleavage (human alpha2-Antiplasmin [12]): ~0.4 nM; Kd [13]: 49 nM; Kd [14]: 11 nM; Kd (human alpha2-Antiplasmin [15]): 14 nM; function blocking activity [IC50 M], 1st exp. (human alpha2-Antiplasmin [16]): 0.4 nM; function blocking activity [IC50 M], 2nd exp. (human alpha2-Antiplasmin [16]): 0.5 nM |
| B4 | 34 nM | 35 nM | > 5e-06 M | 12 nM | 20 nM | 13 nM | 3.3 nM | EC50 (read off the curve); function blocking assay (Example 4), RFU of plasmin substrate cleavage (human alpha2-Antiplasmin [17]): ~10 nM; EC50 (read off the curve) (human alpha2-Antiplasmin [18]): ~3 nM |
